In general, t½ refers to the time needed for the level to fall by half in the phase considered. Usually IC50 stands for the concentration needed to halve the response being measured. Usually kon stands for the second-order rate constant of association.

Consider 3 molecules from patent publication US20240382677A1 (Regeneron, published 2024).

Test [1] deals with T1, monkey PD-1 with mFc (monkey PD-1-mFc) (monkey).
T1 construct: also called monkey PD-1 dimer; MfPD-1 dimer
T1 chain: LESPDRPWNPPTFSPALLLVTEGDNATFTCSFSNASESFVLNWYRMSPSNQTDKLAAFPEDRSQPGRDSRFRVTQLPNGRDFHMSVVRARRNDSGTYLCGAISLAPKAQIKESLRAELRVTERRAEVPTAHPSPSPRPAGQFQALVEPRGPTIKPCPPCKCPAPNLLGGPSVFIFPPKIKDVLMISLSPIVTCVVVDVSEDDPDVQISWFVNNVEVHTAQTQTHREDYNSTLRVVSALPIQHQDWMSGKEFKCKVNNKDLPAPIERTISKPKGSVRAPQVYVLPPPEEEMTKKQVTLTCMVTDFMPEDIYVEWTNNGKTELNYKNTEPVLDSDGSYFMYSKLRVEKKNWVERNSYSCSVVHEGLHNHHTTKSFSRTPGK
Nature of the test: SPR 25C, mAb captured.

Test [2] concerns the target T1, monkey PD-1 with mFc (monkey PD-1-mFc). The test is described as follows: SPR 37C, mAb captured.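 Also: Real-time binding of antigen to purified anti-PD-1 antibodies, measured by surface plasmon resonance on a Biacore 4000 or T200 instrument.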
Test [3] concerns the target T2, recombinant human PD-1 dimer expressed with a C-terminal mouse IgG2a Fc tag (hPD-1-mFc) (human).
T2 construct: also called human PD-1-mFc
The test is described as follows: competition ELISA, 1.5 nM hPD-1-mFc, coated hPD-L1-hFc; * below assay bottom. On the technique in general: ELISA stands for enzyme-linked immunosorbent assay.

Test [4] addresses T3, human PD-1 dimer (human PD-1-mFc or human PD-1-hFc) (human, Fc-mediated homodimer; one copy of the chain is given.).
T3 construct: also called hPD-1-mFc; hPD1-hFc; not shown: The C-terminal Fc tag
Nature of the test: SPR Biacore, mAb captured, 37 C. In general terms: SPR reads the build-up and loss of mass on a sensor chip optically.

Test [5] concerns the target T4, recombinant human PD-1 expressed with a C-terminal myc-myc-hexahistidine tag (human).
T4 construct: monomeric reagent; also called hPD-1-MMH; human PD-1-MMH
Nature of the test: SPR Biacore, mAb captured, 37 C.

T3 sequence (chain, as listed by the source limits assumed): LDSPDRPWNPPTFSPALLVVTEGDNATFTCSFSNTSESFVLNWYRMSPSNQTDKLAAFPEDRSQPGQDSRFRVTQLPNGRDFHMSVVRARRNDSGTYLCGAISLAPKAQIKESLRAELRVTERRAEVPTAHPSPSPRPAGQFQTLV

B1: H4xH9034P (antibody, V domains shown)
VH: EVQLVESGGGVVRPGGSLRLSCTASGFTFDDYGMSWVRQAPGKGLEWISGIGWTGGRSSYADSVRGRFTISRDNAKNSLYLQMNSLGAEDTALYYCARDRQWLVQWYFDYWGQGTLVTVSS
VL: not shown
In the case of B1, in test [1], the “100 nM Monkey PD-1-mFc Bound” value is 95 RU and the t½ came out at 1.17 h. In test [2], the “100 nM Monkey PD-1-mFc Bound” value was 81 RU and the t½ was determined as 0.25 h. Besides, the concentration for half-maximal inhibition (IC50) in test [3] was less than 0.75 nM.

B2: H2aM7794N (antibody, V domains shown)
VH: QLQLQESGPDLVKPSDTLSLTCTVSDDSISSTTYYWAWIRQPPGKGLEWIGSMSYNGNNYYNPSLKSRVAISAGTSQKQFSLKLTSVTAADTAVYHCARHLGYNGNWYPFDFWGQGILVTVSS
VL: not shown
notes: human variable regions with mouse IgG2a Fc (H2aM prefix); also called H2M7794N
B2 yielded a t½ in test [4] of 1.08 h.

B3: H4xH9120P2 (antibody, V domains shown)
VH: QVQLVQSGAEVKRPGASVKVSCKASGYTFTSFYMYWVRQAPGQGLEWMGIINPSDGSTSNAQKFQGRVTMTRDTSTSTVYMELSSLRSEDTAVYYCARRVAGDIFDIWGQGTMVTVSS
VL: not shown
notes: human IgG4 Fc with 2 or more amino acid changes as in US20100331527 (H4xH prefix)
As to B3, in test [5], the kon was determined as 68600 M⁻¹ s⁻¹.
